Results from publication PMC3000357 (PLoS Genetics, 2010).

Tests used:
RecS, purified = target: T1, RecS, purified (Bacillus subtilis, UniProt P50729 1-496); assay: SEC; purified RecS (4 µM) or YpbB/RecS (4 µM) mixed on ice with SSB (16 µM or 40 µM, as monomers) and loaded onto a gel-filtration column; fractions on SDS-PAGE, Coomassie; conditions: both partners purified
T1 construct: RecS (also annotated YpbC), RecQ paralogue of Bacillus subtilis; theoretical mass 57 kDa; also called YpbC; source: E. coli, purified (procedure in Text S1)
T1 sequence (looked up): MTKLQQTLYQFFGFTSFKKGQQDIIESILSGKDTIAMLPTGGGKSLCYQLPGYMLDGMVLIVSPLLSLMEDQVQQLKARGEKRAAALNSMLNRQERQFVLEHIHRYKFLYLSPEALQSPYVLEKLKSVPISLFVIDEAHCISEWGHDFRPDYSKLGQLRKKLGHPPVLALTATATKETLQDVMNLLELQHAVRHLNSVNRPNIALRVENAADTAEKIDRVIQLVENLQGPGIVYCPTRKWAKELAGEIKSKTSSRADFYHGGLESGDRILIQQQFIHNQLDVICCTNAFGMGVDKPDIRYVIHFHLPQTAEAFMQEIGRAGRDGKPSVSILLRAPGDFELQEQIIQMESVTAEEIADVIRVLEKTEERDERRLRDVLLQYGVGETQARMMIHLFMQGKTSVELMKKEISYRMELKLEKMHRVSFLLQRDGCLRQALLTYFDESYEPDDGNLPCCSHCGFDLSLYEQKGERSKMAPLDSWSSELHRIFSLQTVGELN

SSBΔ35 = target: T2, SSBΔ35 (Bacillus subtilis, UniProt P37455 1-137); assay: pull-down on ssDNA magnetic beads; 20 mM Tris-HCl pH 7.5, 200 mM NaCl, 20 °C, 800 rpm; beads washed in same buffer; conditions: protein: recombinant; chain copies: 4; label: 5' biotin, on streptavidin magnetic beads; single strand
T2 sequence: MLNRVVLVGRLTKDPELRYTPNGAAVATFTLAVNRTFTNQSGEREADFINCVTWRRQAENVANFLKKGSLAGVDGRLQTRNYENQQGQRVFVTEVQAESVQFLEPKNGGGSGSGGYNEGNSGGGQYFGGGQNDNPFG

SSBΔ6 = target: T3, SSBΔ6 (Bacillus subtilis, UniProt P37455 1-166); assay: pull-down on ssDNA magnetic beads; 50 pmol oligo, 80 pmol SSBΔ6; 20 mM Tris-HCl pH 7.5, 200 mM NaCl, 20 °C, 800 rpm; beads washed in same buffer; conditions: protein: recombinant; chain copies: 4; label: 5' biotin, on streptavidin magnetic beads; single strand
T3 sequence: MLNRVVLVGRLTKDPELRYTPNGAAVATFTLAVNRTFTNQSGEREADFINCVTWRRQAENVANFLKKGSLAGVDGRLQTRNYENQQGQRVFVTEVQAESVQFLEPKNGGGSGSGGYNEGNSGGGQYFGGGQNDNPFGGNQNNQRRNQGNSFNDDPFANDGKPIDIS

SSB = target: T4, SSB (Bacillus subtilis, UniProt P37455 1-172); assay: pull-down on ssDNA magnetic beads; 50 pmol oligo, 80 pmol SSB; 20 mM Tris-HCl pH 7.5, 200 mM NaCl, 20 °C, 800 rpm; beads washed in same buffer; conditions: protein: recombinant; chain copies: 4; label: 5' biotin, on streptavidin magnetic beads; single strand
T4 sequence: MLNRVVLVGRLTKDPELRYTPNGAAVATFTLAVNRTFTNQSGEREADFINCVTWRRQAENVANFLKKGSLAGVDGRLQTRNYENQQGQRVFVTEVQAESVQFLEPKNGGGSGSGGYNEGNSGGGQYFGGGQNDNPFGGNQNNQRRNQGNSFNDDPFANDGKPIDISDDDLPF

RecQ, purified = target: T5, RecQ, purified (Bacillus subtilis, UniProt O34748 1-591); assay: pull-down; streptavidin magnetic beads with a biotinylated 65-mer ssDNA coated by purified SSB or SSBΔ6 (80 pmol of tetramer; SSBΔ35: 100 pmol of tetramer, 60 pmol of tested protein); purified protein added in 20 mM Tris-HCl pH 7.5, 200 mM NaCl, 30 min, 20°C; SDS-PAGE, Coomassie; conditions: both partners purified
T5 construct: RecQ DNA helicase (initially annotated YocI) of Bacillus subtilis; also called YocI; source: E. coli, purified (procedure in Text S1)
T5 sequence (looked up): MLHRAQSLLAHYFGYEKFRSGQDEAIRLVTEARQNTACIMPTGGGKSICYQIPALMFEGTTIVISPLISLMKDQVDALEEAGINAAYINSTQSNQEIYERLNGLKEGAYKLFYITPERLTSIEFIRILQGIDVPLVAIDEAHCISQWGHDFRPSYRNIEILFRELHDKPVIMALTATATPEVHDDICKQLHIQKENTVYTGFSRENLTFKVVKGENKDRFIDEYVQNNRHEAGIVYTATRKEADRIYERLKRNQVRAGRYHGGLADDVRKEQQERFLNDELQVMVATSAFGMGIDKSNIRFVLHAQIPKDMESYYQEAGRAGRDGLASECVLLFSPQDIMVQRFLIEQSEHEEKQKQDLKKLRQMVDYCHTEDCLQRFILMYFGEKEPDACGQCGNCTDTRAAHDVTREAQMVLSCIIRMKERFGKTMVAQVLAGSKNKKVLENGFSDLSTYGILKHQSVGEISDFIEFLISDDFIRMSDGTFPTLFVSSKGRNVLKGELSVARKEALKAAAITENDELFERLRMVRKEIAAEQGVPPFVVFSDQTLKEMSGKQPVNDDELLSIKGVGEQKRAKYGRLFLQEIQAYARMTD

RecO, purified = target: T6, RecO, purified (Bacillus subtilis, UniProt P42095 1-255); assay: as above; conditions: both partners purified
T6 construct: RecO recombination mediator protein of Bacillus subtilis; source: E. coli, purified (procedure in Text S1)
T6 sequence (looked up): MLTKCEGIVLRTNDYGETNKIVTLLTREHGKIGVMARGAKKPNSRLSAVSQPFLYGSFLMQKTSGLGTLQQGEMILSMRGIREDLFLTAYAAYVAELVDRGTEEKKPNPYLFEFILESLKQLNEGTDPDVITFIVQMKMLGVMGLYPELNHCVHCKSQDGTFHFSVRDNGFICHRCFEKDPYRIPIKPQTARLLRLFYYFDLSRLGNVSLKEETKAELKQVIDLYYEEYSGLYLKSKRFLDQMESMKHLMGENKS

PriA, purified = target: T7, PriA, purified (Bacillus subtilis, UniProt P94461 1-805); assay: as above; conditions: both partners purified
T7 construct: PriA, primary replication restart protein (DNA helicase) of Bacillus subtilis; source: E. coli, purified (procedure in Text S1)
T7 sequence (looked up): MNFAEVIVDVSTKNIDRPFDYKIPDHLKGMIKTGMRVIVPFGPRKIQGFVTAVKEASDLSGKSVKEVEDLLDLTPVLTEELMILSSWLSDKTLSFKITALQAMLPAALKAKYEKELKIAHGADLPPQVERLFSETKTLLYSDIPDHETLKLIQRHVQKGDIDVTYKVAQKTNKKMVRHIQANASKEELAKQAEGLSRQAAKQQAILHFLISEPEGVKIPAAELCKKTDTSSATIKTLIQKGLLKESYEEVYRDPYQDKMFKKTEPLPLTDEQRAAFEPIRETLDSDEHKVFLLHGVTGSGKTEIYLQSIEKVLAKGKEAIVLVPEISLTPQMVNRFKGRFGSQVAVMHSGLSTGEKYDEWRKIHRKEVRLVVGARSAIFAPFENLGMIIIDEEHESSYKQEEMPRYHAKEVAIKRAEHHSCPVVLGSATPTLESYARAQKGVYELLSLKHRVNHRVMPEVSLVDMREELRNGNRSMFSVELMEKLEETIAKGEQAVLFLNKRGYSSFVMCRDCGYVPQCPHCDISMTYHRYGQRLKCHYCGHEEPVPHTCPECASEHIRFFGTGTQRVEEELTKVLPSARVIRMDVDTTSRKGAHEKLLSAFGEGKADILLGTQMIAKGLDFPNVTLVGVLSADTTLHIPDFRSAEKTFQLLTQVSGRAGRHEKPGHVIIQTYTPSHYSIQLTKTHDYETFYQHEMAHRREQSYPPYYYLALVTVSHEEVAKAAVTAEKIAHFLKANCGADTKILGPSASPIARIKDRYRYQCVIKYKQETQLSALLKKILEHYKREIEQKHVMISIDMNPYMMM

RecG, purified = target: T8, RecG, purified (Bacillus subtilis, UniProt O34942 1-682); assay: as above; conditions: both partners purified
T8 construct: RecG DNA helicase of Bacillus subtilis; source: E. coli, purified (procedure in Text S1)
T8 sequence (looked up): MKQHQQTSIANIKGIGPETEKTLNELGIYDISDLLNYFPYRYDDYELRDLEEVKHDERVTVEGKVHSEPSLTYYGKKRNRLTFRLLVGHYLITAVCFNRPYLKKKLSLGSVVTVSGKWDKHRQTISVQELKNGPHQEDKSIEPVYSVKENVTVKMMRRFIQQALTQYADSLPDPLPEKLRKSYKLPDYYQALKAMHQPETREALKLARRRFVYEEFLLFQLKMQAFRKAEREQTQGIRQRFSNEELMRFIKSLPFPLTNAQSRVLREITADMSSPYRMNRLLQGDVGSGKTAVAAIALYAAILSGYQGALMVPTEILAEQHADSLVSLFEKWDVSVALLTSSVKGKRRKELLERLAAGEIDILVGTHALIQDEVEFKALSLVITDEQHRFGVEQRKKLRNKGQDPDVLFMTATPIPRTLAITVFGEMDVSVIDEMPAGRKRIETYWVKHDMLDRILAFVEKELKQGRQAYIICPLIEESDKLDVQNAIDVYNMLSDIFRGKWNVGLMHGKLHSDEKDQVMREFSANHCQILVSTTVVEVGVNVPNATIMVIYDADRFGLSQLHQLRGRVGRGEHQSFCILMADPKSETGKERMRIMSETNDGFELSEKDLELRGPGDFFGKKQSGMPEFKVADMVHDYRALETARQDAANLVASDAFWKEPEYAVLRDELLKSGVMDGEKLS

[1] = target: T9, YpbB/RecS complex, purified (Bacillus subtilis, UniProt P50728 1-352; P50729 1-496); assay: SEC; purified RecS (4 µM) or YpbB/RecS (4 µM) mixed on ice with SSB (16 µM or 40 µM, as monomers) and loaded onto a gel-filtration column; fractions on SDS-PAGE, Coomassie; conditions: both partners purified
T9 construct: YpbB of Bacillus subtilis; RecS (YpbC) of Bacillus subtilis; Equivalent amounts of YpbB and RecS appear to be present in the complex
T9 sequence (looked up) 1: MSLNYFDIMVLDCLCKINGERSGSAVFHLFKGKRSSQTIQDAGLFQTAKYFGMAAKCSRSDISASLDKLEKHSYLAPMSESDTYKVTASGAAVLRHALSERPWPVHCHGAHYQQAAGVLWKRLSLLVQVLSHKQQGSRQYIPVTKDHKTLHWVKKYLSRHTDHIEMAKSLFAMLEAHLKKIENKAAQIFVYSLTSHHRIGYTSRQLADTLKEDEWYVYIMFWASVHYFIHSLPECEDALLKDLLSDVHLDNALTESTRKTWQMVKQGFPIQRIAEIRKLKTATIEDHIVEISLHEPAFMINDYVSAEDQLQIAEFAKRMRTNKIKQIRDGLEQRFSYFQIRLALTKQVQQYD
T9 sequence (looked up) 2: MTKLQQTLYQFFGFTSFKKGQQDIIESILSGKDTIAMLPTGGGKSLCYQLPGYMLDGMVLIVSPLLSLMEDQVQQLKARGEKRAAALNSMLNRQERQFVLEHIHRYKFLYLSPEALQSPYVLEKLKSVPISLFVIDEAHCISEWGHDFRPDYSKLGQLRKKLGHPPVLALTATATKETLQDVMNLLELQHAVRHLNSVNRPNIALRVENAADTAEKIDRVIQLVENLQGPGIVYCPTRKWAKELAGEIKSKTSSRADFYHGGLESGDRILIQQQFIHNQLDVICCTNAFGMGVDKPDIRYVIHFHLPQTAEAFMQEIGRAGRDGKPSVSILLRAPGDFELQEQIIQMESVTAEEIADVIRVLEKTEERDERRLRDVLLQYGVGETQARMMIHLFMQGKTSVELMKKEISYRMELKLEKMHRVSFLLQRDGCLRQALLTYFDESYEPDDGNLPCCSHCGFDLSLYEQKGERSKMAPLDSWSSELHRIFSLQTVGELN

Measured: binding result

B1: YpbB, produced in E. coli with RecS (natural protein, Bacillus subtilis, UniProt P50728 1-352, looked up)
chain: MSLNYFDIMVLDCLCKINGERSGSAVFHLFKGKRSSQTIQDAGLFQTAKYFGMAAKCSRSDISASLDKLEKHSYLAPMSESDTYKVTASGAAVLRHALSERPWPVHCHGAHYQQAAGVLWKRLSLLVQVLSHKQQGSRQYIPVTKDHKTLHWVKKYLSRHTDHIEMAKSLFAMLEAHLKKIENKAAQIFVYSLTSHHRIGYTSRQLADTLKEDEWYVYIMFWASVHYFIHSLPECEDALLKDLLSDVHLDNALTESTRKTWQMVKQGFPIQRIAEIRKLKTATIEDHIVEISLHEPAFMINDYVSAEDQLQIAEFAKRMRTNKIKQIRDGLEQRFSYFQIRLALTKQVQQYD
notes: YpbB, protein of unknown function of Bacillus subtilis, encoded immediately upstream of recS; Could not be prepared as a soluble protein alone; source: E. coli, purified only as a complex with RecS (procedure in Text S1)
binds: RecS, purified

B2: 65-mer biotinylated ssDNA oligonucleotide (ssDNA)
DNA: CGTCGTTTTACAACGTCGTGACTGGGAAAACCCTGGCGTTACCCAACTTAATCGCCTTGCAGCA
modifications: biotin-TEG
binds: SSBΔ35 | SSBΔ6 | SSB

B3: Bacillus subtilis Single-Stranded DNA Binding protein (SSB), purified (natural protein, UniProt P37455 1-172, looked up)
chain: MLNRVVLVGRLTKDPELRYTPNGAAVATFTLAVNRTFTNQSGEREADFINCVTWRRQAENVANFLKKGSLAGVDGRLQTRNYENQQGQRVFVTEVQAESVQFLEPKNGGGSGSGGYNEGNSGGGQYFGGGQNDNPFGGNQNNQRRNQGNSFNDDPFANDGKPIDISDDDLPF
notes: Used as a tetramer; source: E. coli, purified (procedure in Text S1)
binds: RecQ, purified | RecO, purified | PriA, purified | RecG, purified | [1]
